Legend:
DLL3 on cells [1] = target: T1, DLL3 on cells (UniProt Q9NYJ7 27-618, limits assumed); assay: flow cytometry on SHP-77 cells
T1 construct: whole, on cells; also called DLL3 on SHP-77, NCI-H82 (H82), NCI-H69 and HEK-DLL3 cells
T1 sequence (looked up): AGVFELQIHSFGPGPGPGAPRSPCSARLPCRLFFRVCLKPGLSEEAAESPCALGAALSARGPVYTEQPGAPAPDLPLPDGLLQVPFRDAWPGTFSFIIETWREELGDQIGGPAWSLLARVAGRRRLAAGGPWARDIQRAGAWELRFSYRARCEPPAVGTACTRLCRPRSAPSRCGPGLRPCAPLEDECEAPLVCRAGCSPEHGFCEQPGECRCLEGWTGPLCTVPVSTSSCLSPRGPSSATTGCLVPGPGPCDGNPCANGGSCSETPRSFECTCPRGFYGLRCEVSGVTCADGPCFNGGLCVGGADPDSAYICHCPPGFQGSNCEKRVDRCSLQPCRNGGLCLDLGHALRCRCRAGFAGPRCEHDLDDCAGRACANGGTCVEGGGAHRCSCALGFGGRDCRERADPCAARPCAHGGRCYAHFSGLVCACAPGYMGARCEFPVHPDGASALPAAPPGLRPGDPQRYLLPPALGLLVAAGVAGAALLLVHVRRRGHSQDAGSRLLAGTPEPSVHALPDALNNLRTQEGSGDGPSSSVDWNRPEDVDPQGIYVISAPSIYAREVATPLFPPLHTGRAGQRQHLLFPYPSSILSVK

DLL3 on cells [2] = target: T1, DLL3 on cells; assay: flow cytometry on HEK-DLL3 cells

B1: Rovalpituzumab (antibody, V domains shown)
VH: QVQLVQSGAEVKKPGASVKVSCKASGYTFTNYGMNWVRQAPGQGLEWMGWINTYTGEPTYADDFKGRVTMTTDTSTSTAYMELRSLRSDDTAVYYCARIGDSSPSDYWGQGTLVTVSS
VL: EIVMTQSPATLSVSPGERATLSCKASQSVSNDVVWYQQKPGQAPRLLIYYASNRYTGIPARFSGSGSGTEFTLTISSLQSEDFAVYYCQQDYTSPWTFGQGTKLEIK
- EC50 (DLL3 on cells [1]): 110 pM
- EC50 (DLL3 on cells [2]): 60 pM

From patent US20260183437A1 (ABDERA THERAPEUTICS, published 2026)
